Literature values, collected in US6770020B2 (priority 2001, dated 2004).

Settings: cited from earlier work

## Gd-DTPA-hydroxypropylpoly(D-lysine) [Gd-DTPA-pdl]
  membrane permeability: membrane impermeable
